Laboratory results from US20140161803A1 (IFOM Fondazione Istituo FIRC di Oncologia Molecolare, priority 2011, published 2014).

Test system: PC-3 cells
Test: PC3 prostate cancer xenograft tumor growth
Assay type: in vivo, Balb C nu/nu mice
Details: 10.0 mg/kg i.p. bi-weekly; s.c. PC-3 xenograft; versus control animals
Method: Male Balb C nu/nu mice were inoculated with (1×10^6) PC-3 cells through the subcutaneous (s.c.) route. […] Tumors were measured twice weekly, and tumor volume was determined as described in Materials and Methods.
Six-week-old male Balb C nu/nu mice were obtained from Charles River. Before inoculation, PC-3 cells growing in serum-containing medium were washed with phosphate buffered saline (PBS), harvested by trypsinization, and pelleted at 1200 rpm for 7 minutes. Cells (1.0×10^6) were resuspended in 200 μl of PBS with 20% Matrigel. Animals were anesthetized by intraperitoneal (i.p.) injection of Avertin and 1.0×10^6 cells were inoculated subcutaneously (s.c.) using a 26-gauge needle into the right flank of anesthetized mice. […] The animals were monitored twice a week for 7 weeks for tumor development and growth. Tumor volume was determined according to the formula: tumor volume=shorter diameter^2×longer diameter/2. […] Results were analyzed as the mean±SE, and comparisons of the experimental data were analyzed by unpaired, two-tailed, equal variance, t-test.
In this model, one million PC3 cells were inoculated in the right flank of male Balb C nu/nu mice through subcutaneous route.

B1: 13F6: non-inhibitory monoclonal anti-uPAR antibody raised against GFDuPAR-hFc; IgG1 κ (antibody, V domains shown)
VH: ELVKPGASVELSCKASGYTFTSYWMNWVKQRPGRGLEWIGRIAPNSGGTQYSGKFKTKATLTVDKSSSTAYMQLSSLTSEDSAVYYCARGDYFGHFDYWGQGTTLTVS
VL: SLSASLGGKVTITCKASQDINNYIAWYQHKPGKGPRLLIHYTSILQPGIPSRFSGSGSGRDYSFSISNLEPEDIATYYCLQCDNLLTFGAGTKLELK
B1 was tested, and the “effect on tumor volume” value was “A similar inhibition was not observed”.
